Assays:
[1] = biological target: T1, native-sequence human IGFBP-3 (human, UniProt P17936 28-291); assay: BIAcore competition: bp15 (15 nM to 100 µM) pre-incubated 1 h with 20 nM IGFBP-3, injected over immobilised biotinylated IGF-I (bIGF-I, squares); blocked ligand IGF-I; one-site competition fit
T1 construct: also called wild-type IGFBP-3; full-length IGFBP-3

miniBP-3 fusion protein = biological target: T2, miniBP-3 fusion protein (human); assay: BIAcore competition, bp15 preincubated with miniBP-3 fusion, injected over immobilised biotinylated IGF-I
T2 construct: Uncleaved fusion, made in E. coli BL21 from pET21a and purified on IgG Sepharose

[2] = biological target: T1, native-sequence human IGFBP-3; assay: BIAcore competition: bp15 (15 nM to 100 µM) pre-incubated 1 h with 20 nM IGFBP-3, injected over immobilised biotinylated IGF-II (bIGF-II, triangles); blocked ligand IGF-II; one-site competition fit

B1: peptide bp15 (peptide)
peptide: SEEVCWPVAEWYLCN
notes: Identified by phage display (Lowman et al. 1998); also called bp15 peptide
- IC50 [1]: 105 nM
- binding result (miniBP-3 fusion protein): binds
- IC50 [2]: 147 nM

Reference: US20050148035A1 (Genentech, published 2005)
